{
  "source": "patent US9493780B2",
  "about": "“Chloroplast transit peptide” (Dow AgroSciences LLC, priority 2012, dated 2016)",
  "key": {"[1]": {"tested_on": "chloroplasts of the maize protoplast", "experiment": "Maize protoplast transient assay of TraP14-GFP (microscopy)", "type": "cell-based, Zea mays", "conditions": "TraP14-GFP fusion; microscopy after 12 hours of incubation", "text": "The Trap14v2 chimeric chloroplast transit peptide sequence (SEQ ID NO:8) were cloned upstream of the green fluorescent protein gene and incorporated into construct pDAB109902 (FIG. 4) for testing via the maize protoplast transient in planta assay. The resulting constructs contained a single plant transcription unit (PTU). The first PTU was comprised of the Zea mays Ubiquitin 1 promoter (ZmUbi1 promoter; Christensen, A., Sharrock R., and Quail P., (1992) Maize polyubiquitin genes: structure, thermal perturbation of expression and transcript splicing, and promoter activity following transfer to protoplasts by electroporation, Plant Molecular Biology, 18:675-689), TraP-green fluorescent protein fusion gene (TraP14-GFP; U.S. Pat. No. 7,678,893), and Zea mays Peroxidase 5 3′ untranslated region (ZmPer5 3′UTR; U.S. Pat. No. 6,384,207). The constructs were confirmed via restriction enzyme digestion and sequencing.\nSeed of Zea mays var. B104 were surface sterilized by shaking vigorously in 50% Clorox (3% sodium hypochlorite), containing 2-3 drops of Tween 20, for about 20 minutes. […]\nTransfection of 100 to 500 μl of protoplasts (1−5×10^5) was completed by adding the protoplasts to a 2 ml microfuge tube containing about 40 μg of plasmid DNA (pDAB106597), at room temperature. […] Fluorescence of GFP was viewed by microscopy after 12 hours of incubation. […]"}, "T2 Arabidopsis": {"tested_on": "T2 Arabidopsis", "experiment": "T2 Arabidopsis events response to glyphosate applied postemergence, visual % injury", "type": "in vivo, Arabidopsis thaliana", "conditions": "T2 Arabidopsis single copy events", "text": "The second generation plants (T2) of selected T1 Arabidopsis events which contained low copy numbers of the dgt-28 transgene were further characterized for glyphosate tolerance. Glyphosate was applied as described previously. The response of the plants is presented in terms of % visual injury 2 weeks after treatment (WAT). […] An arithmetic mean and standard deviation are presented for each construct used for Arabidopsis transformation. The range in individual response is also indicated in the last column for each rate and transformation. Wild-type, non-transformed Arabidopsis (cv. Columbia) served as a glyphosate sensitive control. In the T2 generation hemizygous and homozygous plants were available for testing for each event and therefore were included for each rate of glyphosate tested. Hemizygous plants contain two different alleles at a locus as compared to homozygous plants which contain the same two alleles at a locus. Variability of response to glyphosate is expected in the T2 generation as a result of the difference in gene dosage for hemizygous as compared to homozygous plants. The variability in response to glyphosate is reflected in the standard deviation and range of response."}},
  "note": "“Also recorded” adds a separate entry of the source.",
  "data": [
    {"molecule": "TraP14: chimeric chloroplast transit peptide (SEQ ID NO:3): N-terminus from Dunaliella salina GPDH, C-terminus from D. salina EPSPS (protein, chimeric TraP14 fusion protein) MILGSSPTLPHASHPARPGPARPISVNDVVPHVYSAPLSVARRSCSKSSIRSTRRLQTTVCS", "values": [
      {"measurement": "translocation of GFP into chloroplasts", "setting": "[1]", "value": "accumulated within the chloroplasts; also recorded: successfully targeted GFP to maize chloroplasts"}
    ]},
    {"molecule": "TraP5 v2: chloroplast transit peptide fused to dgt-28 (protein, Chloroplast Transit Peptide) MQLLNQRQALRLGRSSASKNQQVAPLASRPASSLSVSASSVAPAPACSAPAGAGRRAVVVRA", "values": [
      {"measurement": "tolerance to glyphosate", "setting": "T2 Arabidopsis", "value": "did not provide robust tolerance to glyphosate"}
    ]}
  ]
}
